Patent US20230125550A1 (ARCELLX, published 2023)
Substitutions are numbered along the chain they refer to.

T1: recombinant human CD123-Fc (human, UniProt P26951 19-305)
T1 construct: not shown: Fc part of CD123-Fc
T1 sequence: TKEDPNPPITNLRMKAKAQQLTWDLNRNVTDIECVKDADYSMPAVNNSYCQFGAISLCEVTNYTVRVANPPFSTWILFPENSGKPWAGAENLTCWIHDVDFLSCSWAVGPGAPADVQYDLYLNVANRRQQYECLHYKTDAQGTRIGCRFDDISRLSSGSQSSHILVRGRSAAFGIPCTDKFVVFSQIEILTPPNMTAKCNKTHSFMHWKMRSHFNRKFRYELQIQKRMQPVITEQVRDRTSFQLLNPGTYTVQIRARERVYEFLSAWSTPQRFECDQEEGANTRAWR

B1: SEQ ID NO 700 (designed binder)
chain: MGSWNEFYDRLSAIYFRLQALGGSEAELAAFEKEIAAFESELQAYKGKGNPEVEHLRWYAADIRMILQAYRHN
B2: SEQ ID NO 704 (designed binder)
chain: B1 chain with N5K, Y8D, D9N, S12Y, Y15E, F16D, Q19R
B3: SEQ ID NO 698 (designed binder)
chain: B1 chain with N5Y, D9N, F16A, H55D, M65Y, I66M
B4: SEQ ID NO 701 (designed binder)
chain: B1 chain with S24F
B5: SEQ ID NO 703 (designed binder)
chain: B1 chain with N5V, S12H, Q19L, H55D, M65L, I66V
B6: SEQ ID NO 702 (designed binder)
chain: B1 chain with N5E, S12G, Y15F, F16A, Q19H, H55D
B7: SEQ ID NO 699 (designed binder)
chain: B1 chain with N5Y, F16A, H55D, M65Y, I66M
B8: SEQ ID NO 736 (designed binder)
chain: MGSWFEFVDRLEAIEMRLFALGGSEAELAAFEKEIAAFESELQAYKGKGNPEVELLRWRAAMIRYDLQAYRHN
B9: SEQ ID NO 691 (designed binder)
chain: MGSWYEFEDRLDAIQWRLWALGGSEAELAAFEKEIAAFESELQAYKGKGNPEVEFLRESAANIRQHLQAYRHN
B10: SEQ ID NO 692 (designed binder)
chain: B9 chain with Y5S, D9Y, D12F, Q15E, W16N, W19D, S59E, N62M, H66L
B11: SEQ ID NO 730 (designed binder)
chain: MGSWWEFEDRLMAIYDRLYALGGSEAELAAFEKEIAAFESELQAYKGKGNPEVEYLRAEAALIRETLQAYRHN
B12: SEQ ID NO 732 (designed binder)
chain: MGSWIEFWDRLEAIEDRLWALGGSEAELAAFEKEIAAFESELQAYKGKGNPEVEELRDEAAWIRDSLQAYRHN
B13: SEQ ID NO 677 (designed binder)
chain: B12 chain with I5G, D9A, E15W, D16I, W19D, E55W, D58E, W62D, D65R
B14: SEQ ID NO 731 (designed binder)
chain: B11 chain with W5F, M12Y, Y15E, A58W, E59G, L62T, E65D, T66E
B15: SEQ ID NO 740 (designed binder)
chain: B12 chain with W8E, W19F, E55W, D58Q, W62E, D65L, S66M
B16: SEQ ID NO 734 (designed binder)
chain: B12 chain with I5E, W8T, E12W, W19Y, E55W, W62F, D65K
B17: SEQ ID NO 737 (designed binder)
chain: B12 chain with I5W, W8E, D9M, W19F, E55S, D58W, W62F, S66I
B18: SEQ ID NO 739 (designed binder)
chain: B12 chain with I5Y, W8Y, D9Q, W19F, E55W, W62E, D65V, S66V
B19: SEQ ID NO 735 (designed binder)
chain: B8 chain with F5V, M16D, L55F, W58D, R59Q, M62Y, Y65F, D66M
B20: SEQ ID NO 733 (designed binder)
chain: B12 chain with I5F, E12D, W19Y, D65G, S66T
B21: SEQ ID NO 738 (designed binder)
chain: B12 chain with I5F, W8E, D9I, W19F, E55F, W62E, D65Q, S66V
B22: SEQ ID NO 697 (designed binder)
chain: MGSWVEFWHRLDAIKARLNALGGSEAELAAFEKEIAAFESELQAYKGKGNPEVEDLRWYAADFRLILQAYRHN

Each binder was assayed against T1, recombinant human CD123-Fc (assay: phage ELISA, A450 target/A450 IgG1-Fc).
In short: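 Phage rescued with VCSM13 helper phage from phagemid colonies picked from panning output were tested on plates coated with goat anti-human IgG1-Fc antibody that carried either recombinant human target or IgG1-Fc. Bound phage were detected with HRP-conjugated anti-M13 antibody at 450 nm. The ELISA ratio is target absorbance over IgG1-Fc absorbance, averaged across all screened wells holding the clone.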

First: B1
Second: B2
The ELISA_avg of the first is higher: 10.6 ratio for the first, 3.9 ratio for the second.

Going from B3 to B4, the ELISA_avg falls from 10.6 ratio to 9 ratio.

Going from B5 to B6, the ELISA_avg falls from 4.8 ratio to 3.9 ratio.

First: B7
Second: B8
The ELISA_avg of the first is lower: 5.3 ratio for the first, 7.1 ratio for the second.

First: B9
Second: B10
The ELISA_avg of the first is higher: 6.3 ratio for the first, 3.2 ratio for the second.

First: B11
Second: B12
The ELISA_avg of the first is higher: 15.3 ratio for the first, 4.5 ratio for the second.

Going from B13 to B14, the ELISA_avg falls from 15 ratio to 4.7 ratio.

Going from B15 to B16, the ELISA_avg falls from 21.8 ratio to 8.9 ratio.

Compared with B17, B18 is lower in ELISA_avg: 4 ratio for the first, 3 ratio for the second.

B19 and B20 are the same in ELISA_avg: 4.9 ratio for the first, 4.9 ratio for the second.

First: B21
Second: B22
The ELISA_avg of the first is lower: 3 ratio for the first, 3.5 ratio for the second.
